{"source": "patent USRE40789", "about": "(BAYLOR COLLEGE OF MEDICINE, dated 2009)", "biological_target": "T1, GST-Dun1 (Saccharomyces cerevisiae, UniProt P39009 1-513)", "T1 construct": "Control GST fusion; The species is stated only in the background paragraph, not where the pull-down is told; not shown: glutathione S-transferase (GST) fusion partner", "T1 sequence (looked up)": "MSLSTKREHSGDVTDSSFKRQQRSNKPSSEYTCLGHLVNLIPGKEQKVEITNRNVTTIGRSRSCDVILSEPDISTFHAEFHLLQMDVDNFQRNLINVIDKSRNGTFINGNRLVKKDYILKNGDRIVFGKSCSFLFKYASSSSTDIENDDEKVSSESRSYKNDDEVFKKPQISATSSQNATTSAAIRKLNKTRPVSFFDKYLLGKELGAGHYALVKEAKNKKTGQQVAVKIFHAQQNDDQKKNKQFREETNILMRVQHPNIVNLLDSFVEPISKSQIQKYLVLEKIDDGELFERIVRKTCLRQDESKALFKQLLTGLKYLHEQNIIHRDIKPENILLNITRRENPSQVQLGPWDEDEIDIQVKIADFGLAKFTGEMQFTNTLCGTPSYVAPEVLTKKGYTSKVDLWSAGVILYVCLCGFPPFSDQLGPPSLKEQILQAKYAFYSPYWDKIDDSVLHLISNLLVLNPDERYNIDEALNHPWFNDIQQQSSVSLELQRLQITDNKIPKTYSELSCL", "test": "GST pull-down on glutathione beads from baculovirus extracts, immunoblot with anti Chk1 antibodies", "data": [{"binder": "His6-tagged hChk1 (enzyme, Expressed in baculovirus; used as a crude baculovirus extract in the pull-down and purified in the kinase assay; also called hChk1-His6; His6-tagged hChk1 derivative) MAVPFVEDWDLVQTLGEGAYGEVQLAVNRVTEEAVAVKIVDMKRAVDCPENIKKEICINKMLNHENVVKFYGHRREGNIQYLFLEYCSGGELFDRIEPDIGMPEPDAQRFFHQLMAGVVYLHGIGITHRDIKPENLLLDERDNLKISDFGLATVFRYNNRERLLNKMCGTLPYVAPELLKRREFHAEPVDVWSCGIVLTAMLAGELPWDQPSDSCQEYSDWKEKKTYLNPWKKIDSAPLALLHKILVENPSARITIPDIKKDRWYNKPLKKGAKRPRVTSGGVSESPSGFSKHIQSNLDFSPVNSASSEENVKYSSSQPEPRTGLSLWDTSPSYIDKLVQGISFSQPTCPDHMLLNSQLLGTPGSSQNPWQRLVKRMTRFFTKLDADKSYQCLKETCEKLGYQWKKSCMNQVTISTTDRRNNKLIFKVNLLEMDDKILVDFRLSKGDGLEFKRHFLKIKGKLIDIVSSQKVWLPATHHHHHH", "values": [{"measurement": "binding result", "result": "no binding"}]}]}
